What all share (test): FACS
Test [1] concerns the target α6β1 integrin on Expi293F cells, α6 E219A (human, UniProt P05556 21-798).
In test [2] the target is α6β1 integrin on Expi293F cells, α6 R157A (human, UniProt P05556 21-798).
For test [3], the target named is α6β1 integrin on Expi293F cells, α6 E221A (human, UniProt P05556 21-798).
Test [4] addresses α6β1 integrin on Expi293F cells, α6 D205A (human, UniProt P05556 21-798).
The target of test [5] is α6β1 integrin on Expi293F cells, α6 D153A (human, UniProt P05556 21-798).
Test [6] concerns the target human α6β1 integrin transiently expressed on Expi293F cells, wild type (human, UniProt P05556 21-798).
In test [7] the target is α6β1 integrin on Expi293F cells, α6 X1-ΔC (human, UniProt P05556 21-798).
Chain of α6β1 integrin on Expi293F cells, α6 X1-ΔC (P05556 whole entry, looked up, stated change not applied): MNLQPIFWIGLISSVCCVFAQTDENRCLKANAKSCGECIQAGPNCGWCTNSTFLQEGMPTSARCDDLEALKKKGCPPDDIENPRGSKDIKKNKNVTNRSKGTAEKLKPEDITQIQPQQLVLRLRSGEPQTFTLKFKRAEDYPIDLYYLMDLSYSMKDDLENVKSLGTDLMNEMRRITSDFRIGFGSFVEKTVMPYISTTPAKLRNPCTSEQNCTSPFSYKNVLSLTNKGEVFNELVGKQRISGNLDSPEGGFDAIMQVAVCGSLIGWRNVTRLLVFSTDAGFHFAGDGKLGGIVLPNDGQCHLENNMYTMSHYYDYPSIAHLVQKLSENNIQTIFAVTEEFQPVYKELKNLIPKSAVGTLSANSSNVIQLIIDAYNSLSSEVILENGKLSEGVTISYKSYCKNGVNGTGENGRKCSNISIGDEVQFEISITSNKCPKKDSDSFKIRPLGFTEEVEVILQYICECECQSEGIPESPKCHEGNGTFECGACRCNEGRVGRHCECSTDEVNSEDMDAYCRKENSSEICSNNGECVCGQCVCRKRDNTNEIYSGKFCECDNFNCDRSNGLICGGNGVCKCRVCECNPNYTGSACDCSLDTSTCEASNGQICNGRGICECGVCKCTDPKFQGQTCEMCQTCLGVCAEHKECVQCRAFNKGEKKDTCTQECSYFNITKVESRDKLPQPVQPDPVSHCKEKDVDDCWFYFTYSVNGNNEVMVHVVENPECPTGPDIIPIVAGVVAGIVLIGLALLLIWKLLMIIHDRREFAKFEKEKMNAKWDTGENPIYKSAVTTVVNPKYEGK

Chain of α6β1 integrin on Expi293F cells, α6 D153A (chain, as listed by the source D153A, chain 1 of 2): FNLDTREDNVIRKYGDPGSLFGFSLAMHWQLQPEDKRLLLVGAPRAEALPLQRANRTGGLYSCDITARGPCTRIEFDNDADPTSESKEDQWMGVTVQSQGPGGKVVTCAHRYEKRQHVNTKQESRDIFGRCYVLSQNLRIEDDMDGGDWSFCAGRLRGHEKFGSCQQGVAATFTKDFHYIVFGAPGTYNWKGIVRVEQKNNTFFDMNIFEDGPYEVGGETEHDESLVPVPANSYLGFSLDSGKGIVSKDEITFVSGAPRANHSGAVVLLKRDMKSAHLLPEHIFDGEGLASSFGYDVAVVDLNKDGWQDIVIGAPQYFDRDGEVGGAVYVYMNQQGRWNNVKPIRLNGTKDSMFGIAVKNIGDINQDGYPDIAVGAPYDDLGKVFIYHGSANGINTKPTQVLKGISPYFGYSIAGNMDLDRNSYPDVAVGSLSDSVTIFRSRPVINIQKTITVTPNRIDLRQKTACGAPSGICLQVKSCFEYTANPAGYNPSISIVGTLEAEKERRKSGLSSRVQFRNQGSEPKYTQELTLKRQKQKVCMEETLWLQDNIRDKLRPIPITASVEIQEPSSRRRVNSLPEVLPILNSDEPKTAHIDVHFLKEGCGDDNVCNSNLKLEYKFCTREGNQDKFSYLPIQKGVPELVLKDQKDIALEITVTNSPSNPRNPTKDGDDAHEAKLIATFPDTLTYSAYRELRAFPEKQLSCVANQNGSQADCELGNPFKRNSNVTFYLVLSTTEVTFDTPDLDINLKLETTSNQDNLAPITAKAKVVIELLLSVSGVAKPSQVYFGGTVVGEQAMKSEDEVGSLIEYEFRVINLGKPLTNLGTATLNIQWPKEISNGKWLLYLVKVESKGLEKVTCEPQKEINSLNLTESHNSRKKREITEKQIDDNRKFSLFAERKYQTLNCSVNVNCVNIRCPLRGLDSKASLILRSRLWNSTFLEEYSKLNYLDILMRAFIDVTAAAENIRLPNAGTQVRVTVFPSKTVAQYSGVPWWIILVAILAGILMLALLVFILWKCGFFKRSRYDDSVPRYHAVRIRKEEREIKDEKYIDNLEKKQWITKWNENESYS
Chain of α6β1 integrin on Expi293F cells, α6 D153A (P05556 21-798, chain 2 of 2): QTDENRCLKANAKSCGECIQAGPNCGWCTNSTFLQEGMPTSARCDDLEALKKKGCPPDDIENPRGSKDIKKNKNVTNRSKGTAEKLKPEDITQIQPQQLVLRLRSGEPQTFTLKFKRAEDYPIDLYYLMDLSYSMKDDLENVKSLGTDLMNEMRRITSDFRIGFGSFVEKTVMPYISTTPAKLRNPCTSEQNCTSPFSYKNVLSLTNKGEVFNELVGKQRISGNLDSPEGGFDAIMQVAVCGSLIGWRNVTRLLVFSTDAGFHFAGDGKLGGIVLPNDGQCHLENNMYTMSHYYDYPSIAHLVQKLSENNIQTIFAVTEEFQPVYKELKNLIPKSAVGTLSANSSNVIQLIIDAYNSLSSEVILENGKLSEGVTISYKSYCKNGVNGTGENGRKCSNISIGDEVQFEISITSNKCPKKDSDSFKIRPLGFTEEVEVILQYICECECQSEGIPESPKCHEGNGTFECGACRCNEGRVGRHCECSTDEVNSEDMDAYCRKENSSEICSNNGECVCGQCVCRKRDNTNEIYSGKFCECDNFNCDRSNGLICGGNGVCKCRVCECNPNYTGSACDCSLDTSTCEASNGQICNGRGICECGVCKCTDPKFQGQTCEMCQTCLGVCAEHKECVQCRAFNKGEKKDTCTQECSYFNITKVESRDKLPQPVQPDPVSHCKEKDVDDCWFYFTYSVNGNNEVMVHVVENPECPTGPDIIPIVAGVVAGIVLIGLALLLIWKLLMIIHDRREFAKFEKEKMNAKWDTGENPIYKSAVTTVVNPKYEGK
Chain of α6β1 integrin on Expi293F cells, α6 R157A (chain, as listed by the source R157A, chain 1 of 2): as the sequence (chain, as listed by the source D153A, chain 1 of 2) above, with A153D, R157A counted along it
Chain of α6β1 integrin on Expi293F cells, α6 R157A (P05556 21-798, chain 2 of 2): as the sequence (P05556 21-798, chain 2 of 2) above
Chain of α6β1 integrin on Expi293F cells, α6 E221A (chain, as listed by the source E221A, chain 1 of 2): as the sequence (chain, as listed by the source D153A, chain 1 of 2) above, with A153D, E221A counted along it
Chain of α6β1 integrin on Expi293F cells, α6 E221A (P05556 21-798, chain 2 of 2): as the sequence (P05556 21-798, chain 2 of 2) above
Chain of human α6β1 integrin transiently expressed on Expi293F cells, wild type (chain, as listed by the source, chain 1 of 2): as the sequence (chain, as listed by the source D153A, chain 1 of 2) above, with A153D counted along it
Chain of human α6β1 integrin transiently expressed on Expi293F cells, wild type (P05556 21-798, chain 2 of 2): as the sequence (P05556 21-798, chain 2 of 2) above
Chain of α6β1 integrin on Expi293F cells, α6 D205A (chain, as listed by the source D205A, chain 1 of 2): as the sequence (chain, as listed by the source D153A, chain 1 of 2) above, with A153D, D205A counted along it
Chain of α6β1 integrin on Expi293F cells, α6 D205A (P05556 21-798, chain 2 of 2): as the sequence (P05556 21-798, chain 2 of 2) above
Chain of α6β1 integrin on Expi293F cells, α6 E219A (chain, as listed by the source E219A, chain 1 of 2): as the sequence (chain, as listed by the source D153A, chain 1 of 2) above, with A153D, E219A counted along it
Chain of α6β1 integrin on Expi293F cells, α6 E219A (P05556 21-798, chain 2 of 2): as the sequence (P05556 21-798, chain 2 of 2) above

B1: trimeric fusion protein PA-sfGFP-tLM511 (complex)
chain 1: ENVERWQGQYEGLRGQDLGQAVLDAGHSVSTLEKTLPQLLAKLSILENRGVHNASLALSASIGRVRELIAQARGAASKVKVPMKFNGRSGVQLRTPRDLADLAAYTALKFYLQGPEPEPGQGTEDRFVMYMGSRQATGDYMGVSLRDKKVHWVYQLGEAGPAVLSIDEDIGEQFAAVSLDRTLQFGHMSVTVERQMIQETKGDTVAPGAEGLLNLRPDDFVFYVGGYPSTFTPPPLLRFPGYRGCIEMDTLNEEVVSLYNFERTFQLDTAVDRPCARSKSTGDPWLTDGSYLDGTGFARISFDSQISTTKRFEQELRLVSYSGVLFFLKQQSQFLCLAVQEGSLVLLYDFGAGLKKAVPLQPPPPLTSASKAIQVFLLGGSRKRVLVRVERATVYSVEQDNDLELADAYYLGGVPPDQLPPSLRRLFPTGGSVRGCVKGIKALGKYVDLKRLNTTGVSAGCTADLLVGRAMTFHGHGFLRLALSNVAPLTGNVYSGFGFHSAQDSALLYYRASPDGLCQVSLQQGRVSLQLLRTEVKTQAGFADGAPHYVAFYSNATGVWLYVDDQLQQMKPHRGPPPELQPQPEGPPRLLLGGLPESGTIYNFSGCISNVFVQRLLGPQRVFDLQQNLGSVNVSTGCAPALQAQTPGLGPRGLQATARKASRRSRQPARHPA
chain 2: not shown
chain 3: DTVDLNKLNEIEGTLNKAKDEMKVSDLDRKVSDLENEAKKQEAAIMDYNRDIEEIMKDIRNLEDIRKTLPSGCFNTPSIEKP
modifications: Mn2+; A cytoplasmic form assumed
On to B1, for which the Kd in test [1] is 134 nM; in test [2], 28.8 nM; in test [3] it was 32.5 nM; in test [4], 60.1 nM; in test [5], 45.2 nM.

B2: trimeric fusion protein PA-sfGFP-tLM511 (complex)
chain 1: ENVERWQGQYEGLRGQDLGQAVLDAGHSVSTLEKTLPQLLAKLSILENRGVHNASLALSASIGRVRELIAQARGAASKVKVPMKFNGRSGVQLRTPRDLADLAAYTALKFYLQGPEPEPGQGTEDRFVMYMGSRQATGDYMGVSLRDKKVHWVYQLGEAGPAVLSIDEDIGEQFAAVSLDRTLQFGHMSVTVERQMIQETKGDTVAPGAEGLLNLRPDDFVFYVGGYPSTFTPPPLLRFPGYRGCIEMDTLNEEVVSLYNFERTFQLDTAVDRPCARSKSTGDPWLTDGSYLDGTGFARISFDSQISTTKRFEQELRLVSYSGVLFFLKQQSQFLCLAVQEGSLVLLYDFGAGLKKAVPLQPPPPLTSASKAIQVFLLGGSRKRVLVRVERATVYSVEQDNDLELADAYYLGGVPPDQLPPSLRRLFPTGGSVRGCVKGIKALGKYVDLKRLNTTGVSAGCTADLLVGRAMTFHGHGFLRLALSNVAPLTGNVYSGFGFHSAQDSALLYYRASPDGLCQVSLQQGRVSLQLLRTEVKTQAGFADGAPHYVAFYSNATGVWLYVDDQLQQMKPHRGPPPELQPQPEGPPRLLLGGLPESGTIYNFSGCISNVFVQRLLGPQRVFDLQQNLGSVNVSTGCAPALQAQTPGLGPRGLQATARKASRRSRQPARHPA
chain 2: not shown
chain 3: DTVDLNKLNEIEGTLNKAKDEMKVSDLDRKVSDLENEAKKQEAAIMDYNRDIEEIMKDIRNLEDIRKTLPSGCFNTPSIEKP
modifications: assayed with 0.5 mM Mn2+; X1 variant without the 39-residue X2 insert (P23229 displayed = X1X2A; mature 988 = 1050 gives offset 62 after X2); A/B cytoplasmic form not given, A taken; alpha6 may be furin-cleaved; signal peptides removed
Turning to B2, the Kd in test [6] amounted to 12.5 nM.

B3: trimeric fusion protein PA-sfGFP-tLM511 (complex)
chain 1: ENVERWQGQYEGLRGQDLGQAVLDAGHSVSTLEKTLPQLLAKLSILENRGVHNASLALSASIGRVRELIAQARGAASKVKVPMKFNGRSGVQLRTPRDLADLAAYTALKFYLQGPEPEPGQGTEDRFVMYMGSRQATGDYMGVSLRDKKVHWVYQLGEAGPAVLSIDEDIGEQFAAVSLDRTLQFGHMSVTVERQMIQETKGDTVAPGAEGLLNLRPDDFVFYVGGYPSTFTPPPLLRFPGYRGCIEMDTLNEEVVSLYNFERTFQLDTAVDRPCARSKSTGDPWLTDGSYLDGTGFARISFDSQISTTKRFEQELRLVSYSGVLFFLKQQSQFLCLAVQEGSLVLLYDFGAGLKKAVPLQPPPPLTSASKAIQVFLLGGSRKRVLVRVERATVYSVEQDNDLELADAYYLGGVPPDQLPPSLRRLFPTGGSVRGCVKGIKALGKYVDLKRLNTTGVSAGCTADLLVGRAMTFHGHGFLRLALSNVAPLTGNVYSGFGFHSAQDSALLYYRASPDGLCQVSLQQGRVSLQLLRTEVKTQAGFADGAPHYVAFYSNATGVWLYVDDQLQQMKPHRGPPPELQPQPEGPPRLLLGGLPESGTIYNFSGCISNVFVQRLLGPQRVFDLQQNLGSVNVSTGCAPALQAQTPGLGPRGLQATARKASRRSRQPARHPA
chain 2: not shown
chain 3: DTVDLNKLNEIEGTLNKAKDEMKVSDLDRKVSDLENEAKKQEAAIMDYNRDIEEIMKDIRNLEDIRKTLPSGCFNTPSIEKP
The molecule B3 gave an equilibrium dissociation constant (Kd) in test [7] of 127 nM.
